Measurements as given in the supplement of paper PMC10567573.

B1: ATE1 (parent)
chain: DYFPSEDFYRCGYCKNESGSRSNG
B2: PPFIA4 (parent)
chain: YAGNLHESGVHGALLALDENFDHN

Variants of: B1
Test: protein stability index of a GFP-peptide fusion (GPS, HEK-293T) (PSI 1-6); higher = more stable
Settings: c terminus: a fixed tail appended
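Also: lentivirally expressed fusions sorted by FACS into six bins by GFP to DsRed ratio, PSI derived from sequencing read proportions per bin multiplied by bin number.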

Protein stability index of substitutions, site by site:
R10: I 1.88 | T 2.2 | Y 2.99 | H 1.82 | W 2.33 | D 2.31
P4: E 2.21 | R 1.79 | C 2.08
Y2: V 2.18 | A 3.05 | F 1.82 | C 2.82 | I 2.09 | H 2.37 | L 2.43
R21: H 2.19 | A 2.54 | V 2.5 | K 2.61 | T 2.24 | P 2.69 | I 1.79 | S 2.22
S5: P 2.32 | R 1.7 | V 2.16 | M 1.42 | F 2.01 | Y 2.83 | N 1.61
E17: M 2.45 | C 1.63 | R 2.78 | I 1.38 | Y 1.49 | D 2.44 | F 1.71
Y9: E 2.43 | P 2.57 | V 2.21 | M 2.69 | K 2.37 | W 2.46 | T 2.98 | I 1.88
N16: Q 1.77 | F 1.62 | V 1.74 | H 2 | T 1.97 | Y 2.43
D7: H 1.76 | G 1.85 | Y 2.85 | N 2.28
K15: S 2.42 | N 2.28 | M 3.08 | Q 2.65 | W 2.25 | F 2.65 | A 1.59 | E 2.46 | P 3.41 | R 1.17
S20: M 2.51 | G 2.53 | R 2.07 | Y 1.75 | K 2.36 | C 1.86
G24: W 1.78 | P 3 | H 2.04 | F 1.92 | A 1.88 | Q 1.93 | K 2.83
D1: A 2.3 | L 2.38 | K 2.28 | C 2.26 | I 1.23 | M 2.06 | W 3.35 | S 2.15 | E 1.65
S18: C 1.08 | I 1.53 | R 1.68 | T 2.07 | M 1.24 | K 2.33 | W 2.05 | Y 1.69 | Q 2.37
G19: S 2.15 | H 2.03 | E 2.52 | N 1.84 | F 1.56 | R 1.76 | W 3.29 | I 2.65 | L 2
F8: I 2.35 | E 3.77 | R 2.91 | D 2.44 | T 2.63 | L 2.19 | H 2.19 | K 2.49 | P 3 | Q 2.81 | G 2.48
F3: M 2.99 | C 1.49 | N 2.08 | D 2.61 | S 2.83 | T 2.45 | P 3.21 | V 2.13 | K 2.44 | Y 2.14
Y13: M 3.8 | S 3.69 | T 3.93 | H 3.21 | W 3.73 | P 3.75 | G 3.4 | F 2.4 | E 4.41
E6: F 1.56 | P 2.24 | C 1.85 | N 1.68 | G 1.65 | M 2.38 | K 1.35 | V 1.45 | R 1.53 | H 2.17
G12: T 2.99 | D 3.03 | S 3.15 | Y 2.49 | Q 2.64 | F 3.18 | V 2.4
C14: W 3.43 | L 3.28 | N 3.4 | S 3.94 | Q 3.69
N23: D 2.1 | I 1.52 | L 2.65 | W 2.6 | K 2.51 | V 1.25 | R 1.76 | Q 2.53 | C 1.28
S22: N 2.07 | Y 2.42 | E 2.52 | Q 2.6 | R 1.68 | K 2.02 | L 1.57 | F 1.58 | P 2.46
C11: F 3.46 | T 4.55 | M 4.12 | D 4.21 | I 3.83 | E 4.92 | P 4.15 | G 4.36 | L 2.96

Variants of: B2
Test: as above
Settings: c terminus: a fixed tail appended

Protein stability index of substitutions, site by site:
F21: S 3.56 | Y 2.6 | C 3.23
N4: T 2.23 | H 2.73 | A 2.48 | P 2.77 | L 2.33 | W 1.67 | M 2.29
S8: M 2.19 | L 1.97 | W 1.72 | T 3.26 | I 2.21 | N 2.33 | C 2.39 | R 2.02
A2: I 2.12 | T 3.09 | D 4.38 | S 3.31 | L 3.65 | K 4.68 | F 3.84 | C 2.38
N24: K 2.02 | W 2.01 | F 2.01 | P 2.39 | Q 2.69 | D 2.46
H11: M 1.87 | P 2.57 | T 2.59 | V 1.88 | R 2.46 | K 3.33 | A 3.06
D18: Q 2.65 | H 2.11 | A 1.66 | W 2 | I 2.2 | F 1.69 | P 2.16 | K 2.54
Y1: N 4.81 | V 4.85 | H 4.95 | T 4.26 | R 3.7 | S 5.03
G12: D 3.74 | H 2.71 | F 2.32 | P 2.11 | I 1.94
L15: P 4.09 | Q 3.52 | M 2.93 | F 2.2
E19: W 3.17 | M 1.65 | Q 1.64 | N 2.2 | I 2.97 | P 1.6 | V 2 | H 1.31
H23: N 2.63 | G 2.46 | M 2.19 | E 2.25 | P 2.81
E7: N 1.81 | M 2.02 | T 2.24 | C 1.67 | Y 1.85 | G 2
G3: Q 3.12 | C 2.64 | A 2.79 | L 3.73 | F 2.29 | S 2.95 | D 3.83
L5: G 2.21 | Y 1.82 | W 3.46 | P 2.94 | K 2.86 | Q 2.94 | A 2.56 | C 2.58 | D 3.71
A16: T 3.34 | S 3.2 | P 3.43 | E 4.12 | Y 2.06 | I 1.97 | N 3.23
D22: R 1.56 | Y 2.49 | M 2.3 | A 2.56
N20: E 3.07 | R 2.25 | Q 1.86 | Y 2.24 | G 3.1 | S 2.58
A13: G 2.65 | K 2.96 | D 4.32 | F 1.73 | M 1.49
V10: E 4.11 | S 3.09 | F 2.25 | M 1.79 | P 2.94 | Q 3.19
H6: S 2.27 | K 2.24 | N 2.05 | E 3.7 | T 2.83 | P 2.98 | C 2.92 | A 2.78
L14: S 3.45 | C 2.36 | Q 4.02 | V 2.16 | D 4.59 | W 1.43
G9: F 1.83 | C 2.05 | E 3.49
L17: A 3.43 | Q 3.37 | K 3.24 | F 2.16 | T 3.04 | C 3.21 | Y 1.76
